Numbering of substitutions follows the chain as printed.
T1: his-tagged human CDH6 extracellular region protein (hCDH6 ECD-his) (human, UniProt P55285 19-615)
T1 construct: also called Human CDH6-his; hCDH6-his; not shown: his tag
T1 sequence: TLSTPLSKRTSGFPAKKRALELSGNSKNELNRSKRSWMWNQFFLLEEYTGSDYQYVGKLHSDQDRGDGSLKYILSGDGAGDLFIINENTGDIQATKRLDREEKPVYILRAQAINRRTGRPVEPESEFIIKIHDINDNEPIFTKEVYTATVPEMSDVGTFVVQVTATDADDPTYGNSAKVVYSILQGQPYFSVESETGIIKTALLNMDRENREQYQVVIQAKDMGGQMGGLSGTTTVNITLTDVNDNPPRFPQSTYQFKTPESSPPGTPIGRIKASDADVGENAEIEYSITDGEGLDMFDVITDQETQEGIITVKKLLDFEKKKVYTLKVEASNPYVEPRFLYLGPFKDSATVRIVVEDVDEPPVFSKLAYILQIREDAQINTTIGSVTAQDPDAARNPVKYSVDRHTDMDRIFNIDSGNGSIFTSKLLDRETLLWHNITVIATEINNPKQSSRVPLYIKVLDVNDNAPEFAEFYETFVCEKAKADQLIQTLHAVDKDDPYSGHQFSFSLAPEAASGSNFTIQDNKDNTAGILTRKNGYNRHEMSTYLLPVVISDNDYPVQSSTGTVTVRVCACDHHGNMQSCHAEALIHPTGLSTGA

T2: human CDH6 on tumor cells (OVCAR3 cells, PA-1 cells) (human, UniProt P55285 54-790)
T2 sequence: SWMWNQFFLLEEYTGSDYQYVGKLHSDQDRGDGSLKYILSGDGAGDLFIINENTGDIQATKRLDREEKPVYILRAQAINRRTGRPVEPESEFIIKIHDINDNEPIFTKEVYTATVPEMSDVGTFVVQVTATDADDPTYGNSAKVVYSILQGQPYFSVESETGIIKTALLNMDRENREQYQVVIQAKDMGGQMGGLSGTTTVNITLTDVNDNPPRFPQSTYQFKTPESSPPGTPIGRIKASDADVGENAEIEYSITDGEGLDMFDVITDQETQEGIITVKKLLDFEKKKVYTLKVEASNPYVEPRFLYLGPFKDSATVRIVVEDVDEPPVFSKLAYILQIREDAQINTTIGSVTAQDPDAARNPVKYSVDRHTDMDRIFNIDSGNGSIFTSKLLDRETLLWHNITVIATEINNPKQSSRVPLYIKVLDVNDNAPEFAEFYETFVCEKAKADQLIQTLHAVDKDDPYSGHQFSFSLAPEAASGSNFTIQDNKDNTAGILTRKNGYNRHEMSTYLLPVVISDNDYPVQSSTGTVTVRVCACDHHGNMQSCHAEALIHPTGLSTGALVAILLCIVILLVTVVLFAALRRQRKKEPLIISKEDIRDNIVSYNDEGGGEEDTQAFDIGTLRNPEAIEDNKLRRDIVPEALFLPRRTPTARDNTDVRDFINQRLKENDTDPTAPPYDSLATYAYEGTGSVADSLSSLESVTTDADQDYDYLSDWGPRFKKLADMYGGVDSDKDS

B1: hCDH6-1-H1L1 (antibody, V domains shown)
VH: EVQLVQSGAEVKKPGSSVKVSCKASGYTFSNYWMHWVRQAPGQGLEWMGDIDPSHSETHYTQKFKDRVTITVDKSTSTAYMELSSLRSEDTAVYYCARGDLGRFDYWGQGTTVTVSS
VL: DIVMTQSPDSLAVSLGERATINCRASESVSIHGTHLMHWYQQKPGQPPKLLIYAASNLESGVPDRFSGSGSETDFTLTISSLQAEDVAVYYCQQSFEDPWTFGGGTKVEIK
notes: Humanized
B2: hCDH6-6-H3L5 (antibody, V domains shown)
VH: EVQLVQSGAEVKKPGASVKVSCKASGYTFTDYYMAWVRQAPRQGLEWMGYIFPNSGGTDYSQKFKGRVTMTVDKSTSTVYMELSSLRSEDTAVYYCARELGADYGDYYAMDHWGQGTTVTVSS
VL: DIVMTQSPLSLPVTPGEPASISCRASENIDSYLAWYLQKPGKSPQLLVYSATLLADGVPDRFSGSGSGTDFTLKISRVEAEDVGVYYCQHYYRTPPTFGQGTKLEIK
notes: Humanized
B3: hCDH6-1-H2L1 (antibody, V domains shown)
VH: B1 VH with S30T
VL: B1 VL
notes: Humanized
B4: hCDH6-1-H2L2 (antibody, V domains shown)
VH: B1 VH with S30T
VL: B1 VL with P44S
notes: Humanized
B5: hCDH6-1-H3L1 (antibody, V domains shown)
VH: B1 VH with S30T, I70L
VL: B1 VL
notes: Humanized
B6: hCDH6-1-H3L2 (antibody, V domains shown)
VH: B1 VH with S30T, I70L
VL: B1 VL with P44S
notes: Humanized
B7: hCDH6-1-H4L1 (antibody, V domains shown)
VH: B1 VH with S30T, A40R
VL: B1 VL
notes: Humanized
B8: hCDH6-1-H4L2 (antibody, V domains shown)
VH: B1 VH with S30T, A40R
VL: B1 VL with P44S
notes: Humanized
B9: hCDH6-1-H3L3 (antibody, V domains shown)
VH: B1 VH with S30T, I70L
VL: DIQMTQSPSSLSASVGDRVTITCRASESVSIHGTHLMHWYQQKPGKPPKLLIYAASNLESGVPSRFSGSGSETDFTFTISSLQPEDIATYYCQQSFEDPWTFGGGTKVEIK
notes: Humanized
B10: hCDH6-1-H4L3 (antibody, V domains shown)
VH: B1 VH with S30T, A40R
VL: B9 VL
notes: Humanized

Each binder was assayed against T1, his-tagged human CDH6 extracellular … (assay: SPR Biacore, antibody captured on Protein A).
Method: The affinity of the antibody for the antigen was determined by a multi-cycle kinetic method using a BIAcore 8K instrument. In each cycle, the antibody to be tested was captured using a Protein A chip (purchased from GE, Cat. No. 29-1275-56), and then the antigen human CDH6 protein (hCDH6-his, conventionally synthesized) was injected. The association and dissociation processes of the antibody with the antigen protein were recorded, and finally, the chip was regenerated using Glycine pH 1.5, wherein the mobile phase was HBS-EP+ (10 mM HEPES, 150 mM NaCl, 3 mM EDTA, 0.05% surfactant P20, and 1 mM Ca), the flow rate was 30 μL/min, the association time was 240 s, the dissociation time was 300 s, the regeneration time was 30 s, the detection temperature was 25° C., and the antigen concentration was 31.25-1000 nM. The data were analyzed using Biacore 8K analysis software (version No. 2.0) based on the 1:1 binding model to fit the antibody-antigen binding kinetic parameters, including the association rate constant ka, the dissociation rate constant kd, and the equilibrium dissociation constant KD. The affinity values of the control antibody DS-H01L02 were undetectable. Antibodies not shown in the table had undetectable affinity values.
Four hCDH6-1 humanized antibodies with fewer back mutations were selected, and the affinity for human CDH6 protein was further confirmed using Biacore.

Binder | Kd | koff | kon
B1 | 21.7 nM | 0.00456 s⁻¹ | 210000 M⁻¹ s⁻¹

Each binder was assayed against T1, his-tagged human CDH6 extracellular … (assay: ELISA, coated antigen).
Method: (§1) Human CDH6 protein (hCDH6 ECD-his, conventionally synthesized), monkey CDH6 protein (cynoCDH6 ECD-his, conventionally synthesized; the cynoCDH6 ECD sequence was derived from Uniprot #A0A2K5TW62 (19-615)), and murine CDH6 protein (mCDH6 ECD-his, conventionally synthesized; the mCDH6 ECD sequence was derived from Uniprot #P97326 (19-615)) were diluted with PBS to a final concentration of 1 μg/mL, and added to a 96-well ELISA plate at 100 μL/well. The plate was incubated at 4° C. overnight. The next day, the plate was washed 3 times with a plate washing solution (PBS+0.01% (v/v) Tween 20), and a blocking buffer (PBS+0.01% (v/v) Tween 20+2% (w/w) BSA) was added for blocking at room temperature for 2 h. The blocking buffer was discarded, and the plate was washed 3 times. The chimeric antibodies were diluted with 1% BSA+PBS (purchased from Cytiva, Cat. No. SH30264.01) and added to the 96-well plate at 50 μL/well. After incubation at 37° C. for 2 h, the plate was washed 3 times with a plate washing solution. […] The plate was incubated at 37° C. for 1 h and then washed 5 times with a plate washing solution. A TMB substrate (purchased from Seracare, Cat. No. 5120-0077) was added at 50 μL/well and incubated at room temperature for 10 min, then a stop solution (1.0 N HCl) was added at 50 μL/well. OD450 nm values were read using a microplate reader (Biotek). Analysis was performed by the GraphPad Prism software, data were fitted, and EC50 values were calculated. The chimeric antibodies tested all had strong binding to the human CDH6 protein, the monkey CDH6 protein, and the murine CDH6 protein.
(§2) According to the above sequences, heavy chain (HC) and light chain (LC) plasmids were constructed (the nucleic acid sequences encoding the VH and VL of the antibodies were recombined into an expression vector carrying a signal peptide (SEQ ID NO: 132, […]) and a heavy chain constant region/light chain constant region sequence to obtain recombinant plasmids expressing VH—CH1-Fc/VL-CL).

Binder | EC50 | Max OD450
B2 | 0.043 nM | 1.97 OD450

Molecular target: T1, his-tagged human CDH6 extracellular …
Test: ELISA, coated antigen
Remark: another data set of the same source
Method: as §1
as §2, with “VH-CH1-Fc/VL-CL).” for “VH—CH1-Fc/VL-CL).”

Binder | EC50 | Max OD450
B3 | 0.046 nM | 2.65 OD450
B1 | 0.025 nM | 2.8 OD450
B4 | 0.026 nM | 2.63 OD450
B5 | 0.026 nM | 2.6 OD450
B6 | 0.026 nM | 2.58 OD450
B7 | 0.031 nM | 2.62 OD450
B8 | 0.026 nM | 2.55 OD450
B9 | 0.03 nM | 2.71 OD450
B10 | 0.029 nM | 2.61 OD450

The binders below were run against T2, human CDH6 on tumor cells (OVCAR3 …) (assay: FACS, OVCAR3 cells).
Method: (§3) OVCAR3 cells with high expression of CDH6 and PA-1 cells with moderate expression of CDH6 were used to detect the binding activity of the antibodies to the cells. […] The cells were washed once with PBS, counted, resuspended to 2×10⁶ cells/mL in an FACS buffer (PBS+2% FBS), and then added to a 96-well plate at 50 μL/well. The chimeric antibodies were diluted with FACS buffer (PBS+2% FBS) and added to the 96-well plate at 50 μL/well, and the plate was incubated at 4° C. for 1 h. […] The dilution was added to the 96-well plate at 50 μL/well, and the plate was incubated at 4° C. for 1 h. After the plates were centrifuged and washed 2 times with PBS, the cells were resuspended in an FACS buffer. The mean fluorescence intensity (MFI) was measured using FACS Canton II (BD). Analysis was performed by the GraphPad Prism software, data were fitted, and EC50 values were calculated. The chimeric antibodies tested had strong binding to both OVCAR3 cells and PA-1 cells.
as §2, with “VH-CH1-Fc/VL-CL). According to the expression and purification methods in Example 2, the hCDH6-1 humanized antibodies were obtained, and the binding activity of the humanized antibodies was detected by ELISA and FACS (see 2.2 and 2.3 for the method).” for “VH—CH1-Fc/VL-CL).”

Binder | EC50 | Max MFI
B3 | 0.228 nM | 14500 MFI
B1 | 0.166 nM | 14400 MFI
B4 | 0.147 nM | 14300 MFI
B5 | 0.154 nM | 14600 MFI
B6 | 0.167 nM | 14300 MFI
B7 | 0.152 nM | 14000 MFI
B8 | 0.176 nM | 15200 MFI
B9 | 0.155 nM | 14600 MFI
B10 | 0.162 nM | 15100 MFI

Molecular target: T2, human CDH6 on tumor cells (OVCAR3 …)
Test: FACS, OVCAR3 cells
Remark: another data set of the same source
Method: as §3
as §2, with “VH—CH1-Fc/VL-CL). According to the expression and purification methods in Example 2, the hCDH6-6 humanized antibodies were obtained, and the binding activity of the humanized antibodies was detected by ELISA and FACS (see 2.2 and 2.3 for the method).” for “VH—CH1-Fc/VL-CL).”

Binder | EC50 | Max MFI
B2 | 0.69 nM | 14200 MFI

— patent US20260234242A1 (HAINAN SIMCERE ZAIMING PHARMACEUTICAL, published 2026)
